B1: MutS protein homolog 5 (Saccharomyces cerevisiae), Q12175 (parent)
chain: MSHEWLISASETMRSIGNGEGLRDKGAVVANNDGEFNEGDTNREEDSSTIFSFDFDEEIVMCIDFSGGKLGCSILDYHTKTLKAFDQDYVVNKTTISSHDLIDDADMSSNDISLLLGLLIMEANPTVCLVPARLEDWIFDYIKTKCDEINCRLELQPIKRFKKWDLLQSLQLRGHDNQTILNDILSNSKFTTTVTLGTVGCILANHEQLGEYNDSTASSNMVTGRLVQNAFEDVIHGIRYIDIRDRMVLDENTISALHIFPTAHKLGHDKMMRNGFFSVFELFNQVSSDYARRILKSWLINPLTNKKRIETRYSIIRTLLDKQNAIIFSDLSQSIKRCPDAFGFINQLRSGKSTLGTWSKVASFLEKGIAIFQLVSSLKLGSDEANILHDIKNKVDISALKECLRKVETVIDFDTSRDTKTLTINTGVDNRLDECRNIYNHLEGILLDVARETQIFLLNTMPQEDCKTTKSLEKLVNAVYIPQLGYLVTISVLMEPLLDGIPNLQWEEIFRSSENIYFKNGRVLELDETYGDIYGAISDFEIEILFSLQEQILRRKTQLTAYNILLSELEILLSFAQVSAERNYAEPQLVEDECILEIINGRHALYETFLDNYIPNSTMIDGGLFSELSWCEQNKGRIIVVTGANASGKSVYLTQNGLIVYLAQIGCFVPAERARIGIADKILTRIRTQETVYKTQSSFLLDSQQMAKSLSLATEKSLILIDEYGKGTDILDGPSLFGSIMLNMSKSEKCPRIIACTHFHELFNENVLTENIKGIKHYCTDILISQKYNLLETAHVGEDHESEGITFLFKVKEGISKQSFGIYCAKVCGLSRDIVERAEELSRMINRGDDVVQQCGNLTEKEMREFQKNQEIVKKFLSWDLDLETTTTSENLRLKLKNFLR
partner: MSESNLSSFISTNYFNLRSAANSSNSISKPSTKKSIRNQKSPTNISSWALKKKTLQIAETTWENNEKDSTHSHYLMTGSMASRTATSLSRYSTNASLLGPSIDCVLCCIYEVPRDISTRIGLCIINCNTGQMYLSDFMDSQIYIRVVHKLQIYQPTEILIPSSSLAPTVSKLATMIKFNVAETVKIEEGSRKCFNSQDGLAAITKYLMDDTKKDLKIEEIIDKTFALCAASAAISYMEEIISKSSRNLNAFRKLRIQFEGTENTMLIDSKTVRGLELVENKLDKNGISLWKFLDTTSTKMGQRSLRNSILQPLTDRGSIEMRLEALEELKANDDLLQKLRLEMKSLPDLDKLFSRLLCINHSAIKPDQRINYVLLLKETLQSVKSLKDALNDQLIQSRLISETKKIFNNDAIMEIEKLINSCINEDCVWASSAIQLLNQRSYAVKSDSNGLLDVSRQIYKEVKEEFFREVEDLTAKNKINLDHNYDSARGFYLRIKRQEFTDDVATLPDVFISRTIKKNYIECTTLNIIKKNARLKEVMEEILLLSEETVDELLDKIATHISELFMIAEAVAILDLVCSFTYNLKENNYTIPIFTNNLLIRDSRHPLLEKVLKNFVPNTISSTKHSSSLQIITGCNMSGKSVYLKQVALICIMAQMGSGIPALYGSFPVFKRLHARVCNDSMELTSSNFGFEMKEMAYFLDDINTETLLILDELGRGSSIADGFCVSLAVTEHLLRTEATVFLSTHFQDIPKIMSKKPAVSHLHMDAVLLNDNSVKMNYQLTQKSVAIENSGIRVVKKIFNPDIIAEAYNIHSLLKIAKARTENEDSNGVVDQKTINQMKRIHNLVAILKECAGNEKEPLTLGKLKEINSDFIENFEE

Variants of: B1
Details: with msh4_yeast MSH4, P40965

effect of a mutation on the interaction | Variant
with no effect | G821D
with no effect | G648R
with no effect | G643D
with no effect | A644V

From IntAct's records for PubMed 9374523
